Target: T1, RNF31 PUB domain (Homo sapiens, UniProt Q96EP0)
T1 construct: MBP-TEV (N, cleaved yes); made in house; host or cells: E. coli BL21 (DE3) pLysS
T1 sequence (Q96EP0 1-179): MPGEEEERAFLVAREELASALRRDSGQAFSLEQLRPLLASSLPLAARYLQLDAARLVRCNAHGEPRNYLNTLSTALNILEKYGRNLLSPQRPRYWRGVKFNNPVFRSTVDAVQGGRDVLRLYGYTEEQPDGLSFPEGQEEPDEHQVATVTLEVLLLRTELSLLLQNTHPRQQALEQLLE
Assay: Phage Library Screening with NGS, RNF31 PUB domain
Type: binding
Details: for Phage library screen NGS readout, Target Concentration 10 / Phage library screen NGS readout, Target Concentration 30 / Phage library screen NGS readout, Target Concentration 100 / Phage library screen NGS readout, Target Concentration 300 / Phage library screen NGS readout, Target Concentration 1000: RNF31 PUB domain clusters C41-C45; for Phage library screen NGS readout, BLANK: clusters C41-C45

[1] = target concentration 1000, first column
[2] = target concentration 1000, second column

Row | Sequence | Phage library screen NGS readout, Target Concentration 10 | Phage library screen NGS readout, Target Concentration 30 | Phage library screen NGS readout, Target Concentration 100 | Phage library screen NGS readout, Target Concentration 300 | Phage library screen NGS readout, Target Concentration 1000 [1] | Phage library screen NGS readout, Target Concentration 1000 [2] | Phage library screen NGS readout, BLANK (column 1 of 5) | Phage library screen NGS readout, BLANK (column 2 of 5) | Phage library screen NGS readout, BLANK (column 3 of 5) | Phage library screen NGS readout, BLANK (column 4 of 5) | Phage library screen NGS readout, BLANK (column 5 of 5)
1 | DPASHMCLEAAVMCTYD | 0 | 0 | 0 | 4 | 10 | 13 | 0 | 0 | 0 | 0 | 0
2 | DPATEACFDAAIECTYY | 0 | 0 | 0 | 2 | 7 | 5 | 0 | 0 | 0 | 0 | 0
3 | DPATWWCLYAAEDCVNI | 0 | 1 | 0 | 2 | 6 | 6 | 0 | 0 | 0 | 0 | 4
4 | DPAVVDCWDAAVQCTYY | 0 | 0 | 0 | 4 | 15 | 11 | 0 | 0 | 0 | 2 | 0
5 | DPAWDYCMYAAYDCNHS | 2 | 0 | 1 | 8 | 46 | 29 | 0 | 1 | 0 | 0 | 1
6 | DPAWEHCLYAAYDCTHE | 0 | 1 | 0 | 2 | 10 | 15 | 0 | 4 | 0 | 0 | 0
7 | DPAWESCMYAAYDCDNE | 0 | 1 | 0 | 2 | 14 | 5 | 0 | 0 | 0 | 0 | 0
8 | DPAWEWCLYAAAECIED | 0 | 0 | 0 | 2 | 12 | 5 | 0 | 0 | 0 | 0 | 0
9 | DPAWLDCIYAAYDCVTD | 1 | 1 | 1 | 3 | 6 | 4 | 1 | 1 | 1 | 0 | 2
10 | DPAWMDCLYAAYDCQHM | 2 | 2 | 0 | 9 | 29 | 24 | 1 | 1 | 1 | 0 | 0
11 | DPAWMQCMYAAWDCNIE | 0 | 0 | 0 | 4 | 6 | 5 | 0 | 0 | 0 | 0 | 0
12 | DPAWNDCLYAAETCISW | 1 | 1 | 1 | 3 | 11 | 1 | 2 | 1 | 1 | 0 | 0
13 | DPAWQECVIAALVCDTY | 0 | 0 | 0 | 3 | 13 | 8 | 0 | 0 | 1 | 4 | 0
14 | DPAWTDCDWAALYCDES | 0 | 0 | 0 | 0 | 8 | 4 | 0 | 0 | 0 | 0 | 0
15 | DPAWTDCDWAALYCEFQ | 1 | 0 | 0 | 0 | 6 | 6 | 0 | 0 | 0 | 1 | 0
16 | DPAWTQCDWAALYCEDQ | 0 | 1 | 0 | 1 | 7 | 10 | 0 | 0 | 0 | 0 | 0
17 | DPAWWDCMYAASHCDTV | 0 | 0 | 0 | 3 | 12 | 2 | 2 | 0 | 0 | 0 | 0
18 | DPAWWNCLYAADECWSW | 0 | 0 | 0 | 3 | 13 | 6 | 0 | 0 | 1 | 0 | 0
